# Measured values taken from patent US20060062783A1.
# B1: anti-PTH mAb 168 (antibody, human IgG2, V domains shown)
# VH: EVQLVQSGAEVKKPGESLKISCKGSRYIFTNYWIGWVRQMPGKGLEWMGIIYPGDSDTRYSPSFQGQVTISADMSISTAYLQWSSLKASDTAMYYCARQGDYVWGSFDSWGQGTLVTVSS
# VL: DIVMTQTPLSLSVTPGQPASISCKSSQSLLDSDGKTYLYWYLQKPGQPPQLLIYEVSNRFSGVPDRFSGSGSGTDFTLKISRVEAEDVGVYYCMQSIQLWTFGQGTKVEIK
# Molecular target: T1, Rat PTH (1-84) (rat)
# T1 sequence (peptide): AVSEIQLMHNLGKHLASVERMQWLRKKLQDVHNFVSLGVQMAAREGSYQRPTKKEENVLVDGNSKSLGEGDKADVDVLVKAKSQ
# Assay: ELISA on coated peptide; B cell supernatant
binder,measurement,value
B1,OD,0.19 OD450
